Positions count from the first letter of the chain named.
B1: PR302341-8: humanized variant of Series 10 mAb PR302341; VH SEQ ID NO: 281, VL SEQ ID NO: 340 (antibody, V domains shown)
VH: QVQLVQSGAEVKKPGASVKVSCKASGYTFTDYFMKWVRQAPGQGLEWMGVINPNNGDIFYNQKFKGRVTMTVDKSTSTAYMELSSLRSEDTAVYYCARGTDRALFAYWGQGTLVTVSS
VL: DVVMTQSPLSLPVTLGQPASISCRSGQSIVHSDGNTYLEWYQQRPGQSPRLLIYKVSNRFSGVPDRFSGSGSGTDFTLKISRVEAEDLGVYYCFQGSHIPWTFGGGTKVEIK
modifications: PR302341-10 VH, PR302341-11 VH, PR302341-12 VH, PR302341-14 VH,PR302341-67 VH, PR302341-68 VH, PR302341-69 VH, PR302341-7 VH,PR302341-8 VH, PR302341-9 VH; PR302341-19 VL, PR302341-20 VL, PR302341-21 VL, PR302341-22 VL,PR302341-23 VL, PR302341-28 VL, PR302341-29 VL, PR302341-2 VL,PR302341-41 VL, PR302341-55 VL, PR302341-56 VL, PR302341-57 VL,PR302341-
B2: PR302341-19: humanized variant of Series 10 mAb PR302341; VH SEQ ID NO: 282, VL SEQ ID NO: 340 (antibody, V domains shown)
VH: B1 VH with V72R, K74T, A79V
VL: B1 VL
modifications: PR302341-13 VH, PR302341-19 VH; PR302341-19 VL, PR302341-20 VL, PR302341-21 VL, PR302341-22 VL,PR302341-23 VL, PR302341-28 VL, PR302341-29 VL, PR302341-2 VL,PR302341-41 VL, PR302341-55 VL, PR302341-56 VL, PR302341-57 VL,PR302341-
B3: PR302341-20: humanized variant of Series 10 mAb PR302341; VH SEQ ID NO: 283, VL SEQ ID NO: 340 (antibody, V domains shown)
VH: B1 VH with G44R, M70I, V72R, K74T, T76A
VL: B1 VL
modifications: PR302341-15 VH, PR302341-20 VH, PR302341-70 VH, PR302341-71 VH,PR302341-72 VH; PR302341-19 VL, PR302341-20 VL, PR302341-21 VL, PR302341-22 VL,PR302341-23 VL, PR302341-28 VL, PR302341-29 VL, PR302341-2 VL,PR302341-41 VL, PR302341-55 VL, PR302341-56 VL, PR302341-57 VL,PR302341-
B4: PR302341-10: humanized variant of Series 10 mAb PR302341; VH SEQ ID NO: 281, VL SEQ ID NO: 336 (antibody, V domains shown)
VH: B1 VH
VL: B1 VL with S7T, L11S, S48P, S72A
modifications: PR302341-10 VH, PR302341-11 VH, PR302341-12 VH, PR302341-14 VH,PR302341-67 VH, PR302341-68 VH, PR302341-69 VH, PR302341-7 VH,PR302341-8 VH, PR302341-9 VH; PR302341-10 VL, PR302341-24 VL, PR302341-26 VL, PR302341-43 VL,PR302341-44 VL, PR302341-45 VL, PR302341-4 VL
B5: PR302029: humanized variant of Series 5 mAb PR301777; VH SEQ ID NO: 255, VL SEQ ID NO: 310 (antibody, V domains shown)
VH: EVQLVESGGGLVQPGGSLRLSCAASGFTFSNYWMNWVRQAPGKGLEWVGEIRLKSNNYATHYAESVKGRFTISRDDSKNSLYLQMNSLKTEDTAVYYCTVGTLVYWGQGTLVTVSS
VL: DIVLTQSPDSLAVSLGERATINCRASQSVSTSTYNYMHWFQQKPGQPPKLLIKFASNLESGVPDRFSGSGSGTDFTLTISSLQAEDTAVYYCQHSWEIPYTFGQGTKLEIK
modifications: PR302029 VH, PR302031 VH, PR302034 VH; PR302029 VL, PR302036 VL, PR302043 VL, PR302050 VL, PR302064 VL
B6: PR302048: humanized variant of Series 5 mAb PR301777; VH SEQ ID NO: 257, VL SEQ ID NO: 312 (antibody, V domains shown)
VH: B5 VH with R19K, P41S, S80T, L81A, V100R
VL: DIQLTQSPSSLSASVGDRVTITCRASQSVSTSTYNYMHWFQQKPGKAPKLLIKFASNLESGVPSRFSGSGSGTDFTLTISSLQPEDTATYYCQHSWEIPYTFGQGTKLEIK
modifications: PR302043 VH, PR302045 VH, PR302048 VH; PR302034 VL, PR302041 VL, PR302048 VL, PR302055 VL, PR302069 VL
B7: PR302043: humanized variant of Series 5 mAb PR301777; VH SEQ ID NO: 257, VL SEQ ID NO: 310 (antibody, V domains shown)
VH: B5 VH with R19K, P41S, S80T, L81A, V100R
VL: B5 VL
modifications: PR302043 VH, PR302045 VH, PR302048 VH; PR302029 VL, PR302036 VL, PR302043 VL, PR302050 VL, PR302064 VL
B8: PR302036: humanized variant of Series 5 mAb PR301777; VH SEQ ID NO: 256, VL SEQ ID NO: 310 (antibody, V domains shown)
VH: B5 VH with V2M, G49A, N79S, L81V
VL: B5 VL
modifications: PR302036 VH, PR302038 VH, PR302041 VH; PR302029 VL, PR302036 VL, PR302043 VL, PR302050 VL, PR302064 VL
B9: PR302034: humanized variant of Series 5 mAb PR301777; VH SEQ ID NO: 255, VL SEQ ID NO: 312 (antibody, V domains shown)
VH: B5 VH
VL: B6 VL
modifications: PR302029 VH, PR302031 VH, PR302034 VH; PR302034 VL, PR302041 VL, PR302048 VL, PR302055 VL, PR302069 VL
B10: PR302041: humanized variant of Series 5 mAb PR301777; VH SEQ ID NO: 256, VL SEQ ID NO: 312 (antibody, V domains shown)
VH: B5 VH with V2M, G49A, N79S, L81V
VL: B6 VL
modifications: PR302036 VH, PR302038 VH, PR302041 VH; PR302034 VL, PR302041 VL, PR302048 VL, PR302055 VL, PR302069 VL

System: human CRHR2
Test: CRH-induced luciferase reporter blocking assay, CHO-CRE-hCRHR2 cells
Type: cell-based
Conditions: CHO-CRE-hCRHR2 cells, 0.1 nM CRH
Procedure: (§1) To create CHO-CRE-hCRHR1, -hCRHR2, -mCRHR1, and -mCRHR2 reporter cell lines, pcDNA3.1-hCRHR1, -hCRHR2, -mCRHR1, and -mCRHR2 were introduced into CHO-CRE cells established above by electroporation as described above. Selection antibiotics hygromycin at 500 μg/ml and G418 at 1,000 μg/ml were employed. Individual established stable cell lines were characterized by both CRH and forskolin stimulation.
Activated GPCR proteins increase production of the intracellular cAMP. CHO-CRE-human CRHR1 stable clone 11 was generated by introduction of pcDNA3.1-human CRHR1 under the selection of G418 and hygromycin. Human CRHR1 expression in CHO-CRE-hCRHR1 Clone 11 was confirmed by flow cytometry (data not shown). To further validate that the cell line was functional, CHO-CRE-hCRHR1 Clone 11 cells were treated with forskolin and CRH peptide. […] Subsequently CHO-CRE-hCRHR2 Clone 32, -mCRHR1 Clone 22, and -mCRHR2 Clone 8 cell lines were established using similar methodology and validated with CRH treatment (data not shown).
Blocking CRHR1 by small molecules or neutralization of CRH peptide can reduce luciferase expression if the CRH-CRHR1 system works in CHO-CRE-hCRHR1 cells. Antalarmin, a small molecule CRHR1 antagonist, blocked CRH-mediated luciferase expression in CHO-CRE-hCRHR1 Clone 11 (data not shown). Furthermore, sheep anti-CRH polyclonal antibody reduced CRH-mediated luciferase expression in these cells (data not shown). Likewise, sheep anti-CRH polyclonal antibody blocked CRH-mediated luciferase expression in CHO-CRE-hCRHR2, CHO-CRE-mCRHR1, and CHO-CRE-mCRHR2 cells (data not shown).
(§2) Cells were digested by trypsin-EDTA (Life technologies, Cat #:12604-013), centrifuged at 1,000 rpm for 5 min, resuspended in growth medium, counted using a cell counter, seeded at a concentration of 5,000 cells per 100 μl in 96-well flat plates, and incubated overnight. 50 μl of 4× serially diluted antibodies was added (8 points, 1/4 diluted by growth medium) to plates containing CHO-CRE-hCRHR1 cells, and 50 μl of 4×CRH (4× is 2 nM, final is 0.5 nM) was added. Similarly, 4×CRH (4× is 0.4 nM, final is 0.1 nM) was added to CHO-CRE-hCRHR2 cells and CHO-CRE-mCRHR1 cells, and 4×CRH (4× is 20 nM, final is 5 nM) was added to CHO-CRE-mCRHR2 cells. Next, plates were incubated 4-6 hours at 37° C. in a CO2 incubator. 60 μl of culture medium was removed, to which was added 60 μl of Bio-Glo luciferase, followed by incubation for 10 min at RT. Plates were read in a luciferase plate reader (EnVision, PerkinElmer).

Row | Molecule | IC50
1 | B1 | 0.293 nM
2 | B2 | 0.178 nM
3 | B3 | 0.263 nM
4 | B4 | 0.143 nM
5 | B5 | 5.75 nM
6 | B6 | 13.9 nM
7 | B7 | 5.25 nM
8 | B8 | 2.21 nM
9 | B9 | 10.2 nM
10 | B10 | 4.92 nM

Same assay, conditions: Table 9; hCRHR2

Row | Molecule | IC50
11 | B3 | 1.21 nM
12 | B4 | 0.83 nM

System: mouse CRHR2
Test: CRH-induced luciferase reporter blocking assay, CHO-CRE-mCRHR2 cells
Type: cell-based
Conditions: CHO-CRE-mCRHR2 cells, 5 nM CRH
Procedure: as §1, with “stimulation. […]” for “stimulation.”
as §2

Row | Molecule | IC50
13 | B1 | 0.82 nM
14 | B2 | 0.673 nM
15 | B3 | 0.602 nM
16 | B4 | 1.22 nM
17 | B5 | 8.08 nM
18 | B6 | 6.32 nM
19 | B7 | 6.17 nM
20 | B8 | 5.42 nM
21 | B9 | 29.3 nM
22 | B10 | 12.4 nM

Same assay, conditions: Table 9; mCrhr2

Row | Molecule | IC50
23 | B3 | 1.98 nM
24 | B4 | 1.44 nM

— patent publication US20260042834A1, “ANTI-CORTICOTROPIN-RELEASING HORMONE ANTIBODIES AND POLYCYSTIC OVARY SYNDROME” (HBM ALPHA THERAPEUTICS, INC., priority 2022, published 2026)
